Ends that are not written are not given here.
B1: FAM-lifeAct-14 peptide (carboxy-terminal truncated version of lifeAct) (peptide)
peptide: MGVADLIKKFESIS
modifications: not fully specified (N-terminus); also: FAM label, position not given here
notes: source: synthetic peptide (custom synthesized, LifeTein, USA)
B2: FAM-lifeAct-17 peptide (full-length lifeAct) (peptide)
peptide: MGVADLIKKFESISKEE
modifications: also: FAM label, position not given here
notes: also called lifeAct peptide; source: synthetic peptide (custom synthesized, LifeTein, USA)
B3: Human UTRN-ABD (amino acids 1-261) H29A (domain or fragment)
chain: MAKYGEHEASPDNGQNEFSDIIKSRSDEANDVQKKTFTKWINARFSKSGKPPINDMFTDLKDGRKLLDLLEGLTGTSLPKERGSTRVHALNNVNRVLQVLHQNNVELVNIGGTDIVDGNHKLTLGLLWSIILHWQVKDVMKDVMSDLQQTNSEKILLSWVRQTTRPYSQVNVLNFTTSWTDGLAFNAVLHRHKPDLFSWDKVVKMSPIERLEHAFSKAQTYLGIEKLLDPEDVAVQLPDKKSIIMYLTSLFEVLPQQVTID
notes: source: E. coli Rosetta DE3, purified (His-Trap, Superdex-200)
B4: Human UTRN-ABD (amino acids 1-261) I22D (domain or fragment)
chain: MAKYGEHEASPDNGQNEFSDIDKSRSDEHNDVQKKTFTKWINARFSKSGKPPINDMFTDLKDGRKLLDLLEGLTGTSLPKERGSTRVHALNNVNRVLQVLHQNNVELVNIGGTDIVDGNHKLTLGLLWSIILHWQVKDVMKDVMSDLQQTNSEKILLSWVRQTTRPYSQVNVLNFTTSWTDGLAFNAVLHRHKPDLFSWDKVVKMSPIERLEHAFSKAQTYLGIEKLLDPEDVAVQLPDKKSIIMYLTSLFEVLPQQVTID
notes: as for B3
B5: Human UTRN-ABD (amino acids 1-261) N109A (domain or fragment)
chain: MAKYGEHEASPDNGQNEFSDIIKSRSDEHNDVQKKTFTKWINARFSKSGKPPINDMFTDLKDGRKLLDLLEGLTGTSLPKERGSTRVHALNNVNRVLQVLHQNNVELVAIGGTDIVDGNHKLTLGLLWSIILHWQVKDVMKDVMSDLQQTNSEKILLSWVRQTTRPYSQVNVLNFTTSWTDGLAFNAVLHRHKPDLFSWDKVVKMSPIERLEHAFSKAQTYLGIEKLLDPEDVAVQLPDKKSIIMYLTSLFEVLPQQVTID
notes: as for B3
B6: Human UTRN-ABD (amino acids 1-261) V87D (domain or fragment)
chain: MAKYGEHEASPDNGQNEFSDIIKSRSDEHNDVQKKTFTKWINARFSKSGKPPINDMFTDLKDGRKLLDLLEGLTGTSLPKERGSTRDHALNNVNRVLQVLHQNNVELVNIGGTDIVDGNHKLTLGLLWSIILHWQVKDVMKDVMSDLQQTNSEKILLSWVRQTTRPYSQVNVLNFTTSWTDGLAFNAVLHRHKPDLFSWDKVVKMSPIERLEHAFSKAQTYLGIEKLLDPEDVAVQLPDKKSIIMYLTSLFEVLPQQVTID
notes: also called UTRN-V87D; source: E. coli Rosetta DE3, purified (His-Trap, Superdex-200)

What follows are binders tested against F-actin (filamentous actin), actin purified from chicken breast (Gallus gallus) (chicken (Gallus gallus), UniProt P68139 1-377) (assay: co-sedimentation). Details: both partners purified.
A Kd of 1200 nM was found for B1 in this work. A Kd of 2200 nM was found for B2 in this work. A Kd of 2800 nM was found for B3 in this work. A Kd of 38000 nM was found for B4 in this work. A Kd of 55000 nM was found for B5 in this work. A Kd of over 100000 nM was found for B6 in this work.
